Literature values, collected in patent publication US20220259272A1, “PHOTOACTIVE COMPOSITIONS FOR T[…] DELIVERY” (The University of North Carolina at Chapel Hill, priority 2019, published 2022).

Columns and labels:
[1] = in vivo
[2] = 1 mg/kg, up to 100 mg
[3] = in vivo; remark: listed apart in the source

| Substance | circulatory lifetime [1] [min] | catastrophic intracerebral hemorrhage, share of patients [2] [%] | circulatory half-life [3] [min] |
| --- | --- | --- | --- |
| tPA: enzyme that activates plasminogen to generate plasmin, which dissolves the clot | 5 | ~10 |  |
| TF: protein that promotes blood clotting in the cascade activating thrombin |  |  | < 1 |
